According to patent US8394929B2, “Nogo receptor-mediated blockade of axonal growth” (Yale University, priority 2000, dated 2013):

B1: GST-Nogo: GST fusion protein of the 66 amino acid lumenal-extracellular fragment of Nogo-A, expressed in E. coli (protein)
chain: RIYKGVIQAIQKSDEGHPFRAYLESEVAISEELVQKYSNSALGHVNCTIKELRRLFLVDDLVDSLK
modifications: also: GST fusion protein
notes: GST fusion protein of the 66 amino acid lumenal-extracellular fragment of Nogo-A, expressed in E. coli

Assays:
[1] = system: TPA-induced growth cone collapse; experiment: TPA-induced growth cone collapse in E12 chick DRG explants; assay type: cell-based
Method: (§1) For further testing, a synthetic peptide containing amino acid residues #1055-1094 of hNgR, acetylated at the […] was used [hereinafter “Peptide 140”]. […] Antagonist of Nogo-66 inhibitory activity may act by competing for, and thereby blocking NgR binding sites. To determine the antagonistic activity of Peptide 140, the above synthetic form of the peptide was added to E12 chick DRG explant cultures approximately 10 min before application of various concentrations of GST-NogoA (residues #1055-1120), TPA or Sema3A. 30 min later, cultures were fixed and growth cone collapse was assessed following staining with rhodamine-phalloidin.

[2] = system: Sema3A-induced growth cone collapse; experiment: Sema3A-induced growth cone collapse in chick DRG cultures; assay type: cell-based
Source text: The Nogo-66 receptor protein is necessary for Nogo-66 action and not simply a binding site with a function unrelated to inhibition of axonal outgrowth. A first prediction is that phosphoinositol specific-Phospholipase C (PI-PLC) treatment to remove glycophosphatidylinositol (GPI)-linked proteins from the neuronal surface will render neurons insensitive to Nogo-66. This prediction holds true for chick E13 dorsal root ganglion neurons; PI-PLC treatment abolishes both AP-Nogo binding and GST-Nogo-66-induced growth cone collapse (FIG. 10a-c). As a control, Sema3A responses in the parallel cultures are not altered by PI-PLC treatment.
as §1

3T3 fibroblasts = experiment: 3T3 fibroblast spreading; assay type: cell-based, mouse; details: substrate-bound / coated surfaces
Method: (a) is a schematic diagram which summarizes features of the Nogo proteins utilized in this study. (b) is a photograph of NIH-3T3 fibroblasts cultured on surfaces coated with Amino-Nogo, GST-Nogo-66 or no protein and stained for filamentous actin (scale bar, 40 μm). (c) is a photograph of chick E12 dorsal root ganglions cultured on surfaces coated with Amino-Nogo, GST-Nogo-66 or no protein (substrate-bound) or with 100 nM Nogo protein (soluble) (scale bar, 40 μm). (d) is a photograph of a gel and an immunoblot where purified Amino-Nogo-Myc-His protein was subjected to SDS-PAGE and stained with Commassie Brilliant Blue (CBB) or immunoblotted with anti-Myc antibodies (Myc) (molecular weight markers of 200, 116, 97, 65 & 45 kDa are at left). (e) is a graph displaying experimental data where the percentage of 3T3 fibroblasts with an area greater than 1200 μm^2 (spread) was measured from experiments as in (b) on Nogo-coated surfaces (black) or with soluble 100 nM Nogo preparations (blue) (AM, Amino-Nogo; AM+Myc, Amino-Nogo preincubated with anti-Myc antibody; AM+Myc+Mo, AM+Myc preincubated with anti-mouse IgG antibody; Myc+Mo, anti-Myc antibody plus anti-murine IgG antibody). (f) is a graph displaying experimental data where the percentage of spread COS-7 cells was determined after culture on Nogo-coated surfaces or with soluble 100 nM Nogo preparations. (g) is a graph displaying experimental data where the effects of purified preparations of GST-Nogo-66 or Amino-Nogo on growth cone morphology was assessed in E12 dorsal root ganglion cultures at the indicated concentrations after thirty minutes. […] (h) is a graph displaying experimental data where the neurite outgrowth per cell in […] dorsal root ganglion cultures was quantitated from experiments as in (c) on Nogo-coated surfaces or with soluble 100 nM Nogo preparations. (i) is a graph displaying experimental data where the effects of Nogo preparations on neurite outgrowth in cerebellar granule neurons was measured.
Assays of Nogo-A function have included growth cone collapse, neurite outgrowth, and fibroblast spreading with substrate-bound and soluble protein preparations (Caroni & Schwab, (1988) J. Cell Biol. 106, 1281-1288; GrandPré et al., (2000) Nature 403, 439-444; Chen et al., (2000) Nature 403, 434-439; Prinjha et al., (2000) Nature 403, 483-484). […] Since NI250 preparations and full length Nogo-A are non-permissive for 3T3 spreading, it was necessary to consider whether different domains of Nogo might subserve this in vitro activity. To facilitate a comparison of different Nogo-A domains, the acidic amino terminal 1040 amino acid fragment (Amino-Nogo) was expressed as a Myc-his tagged protein in HEK293T cells (FIG. 1d). The Nogo protein is present in cytosolic fractions. […]

[3] = system: NGF-differentiated PC12 cells; experiment: Axon outgrowth from NGF-differentiated PC12 cells; assay type: cell-based
Method: For all experiments involving cell culture, the following methods were employed. The culture of embryonic chick E10 and E12 dorsal root ganglion explants and dissociated neurons utilized methods described for E7 dorsal root ganglion cultures (Takahashi et al., (1998) Nature Neurosci. 1, 487-493; Takahashi et al., (1999) Cell 99, 59-69; Goshima et al., (1995) Nature 376, 509-514; Jin & Strittmatter, (1997) J. Neurosci. 7, 6256-6263). NGF-differentiated PC12 cells were cultured as described (Strittmatter et al., (1994) J. Neurosci. 14, 2327-2338). Embryonic spinal cord explants (rat E10 or chick E5) were cultured for 7-14 days in the presence of PDGF-AA to induce differentiation of some cells into mature oligodendrocytes (Vartanian et al., (1999) Proc. Natl. Acad. Sci. USA 96, 731-735). The procedure for growth cone collapse assays is identical to that for analysis of Sema3A-induced growth cone collapse (Takahashi et al., (1998) Nature Neurosci. 1, 487-493; Takahashi et al., (1999) Cell 99, 59-69; Goshima et al., (1995) Nature 376, 509-514; Jin & Strittmatter, (1997) J. Neurosci. 17, 6256-6263). The method for analysis of total neurite outgrowth has also been described (Goshima et al., (1995) Nature 376, 509-514; Jin & Strittmatter, (1997) J. Neurosci. 17, 6256-6263; Strittmatter et al., (1994) J. Neurosci. 14, 2327-2338). […]

Row | Molecule | effect on TPA-induced growth cone collapse (in words) [1] | effect on Sema3A-induced growth cone collapse (in words) [2] | 3T3 fibroblast spreading (in words) (3T3 fibroblasts) | axonal outgrowth (in words) ([3]; bound to substrate surfaces) | axon outgrowth (in words) ([3]; soluble, nM concentrations)
1 | Peptide 140: synthetic peptide of amino acids #1055-1094 of the human NogoA protein, acetylated and amidated at the termini (Ac-RIYKGVIQAIQKSDEGHPFRAYLESEVAISEELVQKYSNS-NH2; UniProt Q9NQC3 1055-1094, looked up, fragment) | no significant reduction in collapse | no significant reduction in collapse | – | – | –
2 | B1 | – | – | does not inhibit spreading | reduced to undetectable levels | blocked
